Data taken from IntAct's records for PubMed 20125124.

B1: Serine protease HTRA2, mitochondrial (Homo sapiens), O43464 (parent)
chain: MAAPRAGRGAGWSLRAWRALGGIRWGRRPRLTPDLRALLTSGTSDPRARVTYGTPSLWARLSVGVTEPRACLTSGTPGPRAQLTAVTPDTRTREASENSGTRSRAWLAVALGAGGAVLLLLWGGGRGPPAVLAAVPSPPPASPRSQYNFIADVVEKTAPAVVYIEILDRHPFLGREVPISNGSGFVVAADGLIVTNAHVVADRRRVRVRLLSGDTYEAVVTAVDPVADIATLRIQTKEPLPTLPLGRSADVRQGEFVVAMGSPFALQNTITSGIVSSAQRPARDLGLPQTNVEYIQTDAAIDFGNSGGPLVNLDGEVIGVNTMKVTAGISFAIPSDRLREFLHRGEKKNSSSGISGSQRRYIGVMMLTLSPSILAELQLREPSFPDVQHGVLIHKVILGSPAHRAGLRPGDVILAIGEQMVQNAEDVYEAVRTQSQLAVQIRRGRETLTLYVTPEVTE
partner: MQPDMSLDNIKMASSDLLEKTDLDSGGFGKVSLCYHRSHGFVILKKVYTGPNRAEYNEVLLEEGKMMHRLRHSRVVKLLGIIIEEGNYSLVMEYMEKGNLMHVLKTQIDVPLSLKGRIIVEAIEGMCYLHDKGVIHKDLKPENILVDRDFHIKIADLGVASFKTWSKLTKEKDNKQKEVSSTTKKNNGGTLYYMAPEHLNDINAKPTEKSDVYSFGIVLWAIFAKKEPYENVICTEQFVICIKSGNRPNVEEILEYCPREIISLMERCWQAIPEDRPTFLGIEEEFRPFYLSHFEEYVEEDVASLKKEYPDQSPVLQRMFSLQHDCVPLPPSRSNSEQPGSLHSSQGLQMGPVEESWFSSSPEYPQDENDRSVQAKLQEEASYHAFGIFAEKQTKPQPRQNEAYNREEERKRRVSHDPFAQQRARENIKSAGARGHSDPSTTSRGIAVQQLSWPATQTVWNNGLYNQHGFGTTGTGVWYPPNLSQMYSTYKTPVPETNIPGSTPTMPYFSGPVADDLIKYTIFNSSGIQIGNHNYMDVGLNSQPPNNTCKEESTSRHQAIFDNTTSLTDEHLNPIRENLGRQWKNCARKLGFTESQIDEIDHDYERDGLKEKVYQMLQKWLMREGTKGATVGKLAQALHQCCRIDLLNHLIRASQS

Variants of: B1
Details: with ripk1_mouse Ripk1, Q60855
S306A was tested, and the “effect of a mutation on the interaction” value was “disrupting interaction”.
